Data taken from article PMC2685776 (Oncogene, 2009).
Where “and” joins values, the source holds several entries; their conditions need not be identical. Equal values may be shown once.

What was measured:
CBP Kix = CBP Kix (UniProt Q92793); details: cited from earlier work
[1] = molecular target: p53 TAD peptide 10-57 Hepta-(Asp) (human) (UniProt P04637); assay: fluorescence polarisation
[2] = molecular target: p53 TAD peptide 1-57 Hepta-(Ala) (human) (UniProt P04637); assay: fluorescence polarisation
Kix = details: ref Zor et al., 2002, cited from earlier work

Sequence of CREB (P16220 whole entry): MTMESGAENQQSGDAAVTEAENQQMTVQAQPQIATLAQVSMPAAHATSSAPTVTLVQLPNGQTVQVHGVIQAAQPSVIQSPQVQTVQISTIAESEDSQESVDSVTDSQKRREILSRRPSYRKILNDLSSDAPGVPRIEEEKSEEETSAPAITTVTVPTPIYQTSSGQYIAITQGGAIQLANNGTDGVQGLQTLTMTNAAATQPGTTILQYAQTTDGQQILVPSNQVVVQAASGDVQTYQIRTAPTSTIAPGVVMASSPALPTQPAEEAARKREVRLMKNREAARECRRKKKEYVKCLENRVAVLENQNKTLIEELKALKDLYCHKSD
Sequence of UniProt Q92793 (Q92793 587-666): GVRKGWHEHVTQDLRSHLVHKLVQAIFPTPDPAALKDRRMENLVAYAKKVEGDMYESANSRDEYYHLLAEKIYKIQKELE

Which Kd (CBP Kix) does the source give for CREB (from UniProt P16220) here?
The Kd was 700 nM.

With “p300 Taz1 domain (from UniProt Q09472 1-2414) (domain or fragment)” as the substance, how does the Kd [1] read?
Its Kd is 38 nM.

And the Kd [2]?
The Kd was 560 nM.

With “CREB: transcription factor CREB, phosphorylated on Ser133, binding Kix (literature)” as the substance, how does the Kd (Kix; read-out: KD, Kix, CREB phosphorylated at Ser133) read?
The Kd was 700 nM.

What about the “fold tighter Kix binding upon phosphorylation of Ser133” value (Kix) of the same substance?
Its value is 150 fold and ~ 150 fold.
